Results as given in paper PMC6745792, “A novel biotinylated nanobody-based blocking ELISA for the rapid and sensitive clinical detection of porcine epidemic diarrhea virus” (Journal of Nanobiotechnology, 2019).

How the values were obtained:
[1] = target: T1, PEDV N protein (recombinant nucleocapsid protein of porcine epidemic diarrhea virus) (Porcine epidemic diarrhea virus, strain …, UniProt Q07499); experiment: SPR; Biacore 3000; purified PEDV N protein (5 µg/ml) amine-coupled to a CM5 chip; Nb1, Nb2, Nb3 flowed at 3 µg/ml each; HBS-EP (10 mM HEPES pH 7.4, 150 mM NaCl, 3 mM EDTA, 0.005% P20), room temperature; 1:1 Langmuir model; conditions: both partners purified
T1 construct: also called PEDV N antigen; N-His-tagged recombinant protein; source: recombinant, purified ('highly pure')

[2] = target: T2, PEDV N protein (recombinant nucleocapsid protein of porcine epidemic diarrhea virus) (Porcine epidemic diarrhea virus, strain …, UniProt Q07499); experiment: SPR; Biacore 3000; purified PEDV N protein (5 µg/ml) amine-coupled to a CM5 chip; Nb1, Nb2 and Nb3 each flowed over at 3 µg/ml; HBS-EP (10 mM HEPES pH 7.4, 150 mM NaCl, 3 mM EDTA, 0.005% P20); room temperature; 1:1 Langmuir model
T2 construct: also called N-His recombinant protein; N-His-tagged recombinant protein; source: recombinant, purified

B1: Nb1 (anti-PEDV N protein nanobody) (VHH)
VHH: QVQLQESGGGSVQSGGSLRLSCAVSGYTYSGLCMGWFRQAPGREREGVATIDTDGYTSYTDSVKGRFTISRDNAKNTLLLQMNSLQPEDTAMYYCAADPRTAIYCSTSRSAKWYNHWGQGTQVTVSS
For B1, the kon [1] was 197000 M⁻¹ s⁻¹.

B2: Nb1 (VHH)
VHH: B1 VHH
notes: VHH from a Bactrian camel immunised with PEDV N protein, selected by phage display
B2 gave a koff [2] of 0.00206 s⁻¹.
